Experimental data as given in patent US20080152587A1 (Amgen, published 2008).

T1: mouse uPAR on the surface of NCTC L929 cells (mouse, UniProt P35456 24-298)
T1 construct: whole, on cells; also called cell surface mouse uPAR
T1 sequence (looked up): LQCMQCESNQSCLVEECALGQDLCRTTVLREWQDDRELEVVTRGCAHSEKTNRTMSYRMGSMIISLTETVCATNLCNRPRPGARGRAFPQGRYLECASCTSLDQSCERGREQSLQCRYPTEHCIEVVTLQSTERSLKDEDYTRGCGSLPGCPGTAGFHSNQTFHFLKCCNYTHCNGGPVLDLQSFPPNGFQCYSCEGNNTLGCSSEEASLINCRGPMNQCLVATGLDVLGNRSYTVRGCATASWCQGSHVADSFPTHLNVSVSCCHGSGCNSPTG

T2: human Ly6e with a myc tag, expressed in HEK293T cells (human, UniProt Q16553 21-101)
T2 construct: whole, on cells; not shown: myc tag fused on the molecule
T2 sequence (looked up): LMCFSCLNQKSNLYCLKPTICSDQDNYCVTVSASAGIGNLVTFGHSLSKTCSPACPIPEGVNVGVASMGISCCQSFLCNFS

T3: lane 1: murine DI/DIII-human DII uPAR chimera (His-tagged)
T3 construct: The sheet prints only the lane number; also called Murine D1/Human D2/Murine D3; murine D1/human D2/MuD3
T3 uPAR ECD chimera: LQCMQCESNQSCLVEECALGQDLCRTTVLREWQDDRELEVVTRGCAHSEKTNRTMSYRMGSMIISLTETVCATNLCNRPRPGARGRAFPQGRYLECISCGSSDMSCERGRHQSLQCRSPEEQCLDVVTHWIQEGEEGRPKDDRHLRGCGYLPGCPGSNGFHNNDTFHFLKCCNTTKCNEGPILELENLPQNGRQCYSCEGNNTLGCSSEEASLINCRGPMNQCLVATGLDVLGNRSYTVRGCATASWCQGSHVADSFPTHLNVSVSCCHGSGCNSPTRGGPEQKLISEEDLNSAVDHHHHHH

T4: lane 3: murine DI-human DII/DIII uPAR chimera (His-tagged)
T4 construct: The sheet prints only the lane number; also called Murine D1/Human D2D3; murine D1/humanD2D3
T4 uPAR ECD chimera: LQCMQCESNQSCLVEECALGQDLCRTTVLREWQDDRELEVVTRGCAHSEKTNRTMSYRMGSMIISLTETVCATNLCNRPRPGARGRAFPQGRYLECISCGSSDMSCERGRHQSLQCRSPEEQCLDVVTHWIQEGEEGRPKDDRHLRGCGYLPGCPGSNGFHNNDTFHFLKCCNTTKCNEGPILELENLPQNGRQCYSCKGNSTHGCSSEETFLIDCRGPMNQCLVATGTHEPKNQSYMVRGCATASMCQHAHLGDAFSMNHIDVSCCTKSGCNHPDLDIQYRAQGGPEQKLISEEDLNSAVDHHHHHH

T5: lane 4: human DI/DII-murine DIII uPAR chimera (His-tagged)
T5 construct: The sheet prints only the lane number; also called Human D1D2/Murine D3; human D1D2/murineD3uPAR
T5 uPAR ECD chimera: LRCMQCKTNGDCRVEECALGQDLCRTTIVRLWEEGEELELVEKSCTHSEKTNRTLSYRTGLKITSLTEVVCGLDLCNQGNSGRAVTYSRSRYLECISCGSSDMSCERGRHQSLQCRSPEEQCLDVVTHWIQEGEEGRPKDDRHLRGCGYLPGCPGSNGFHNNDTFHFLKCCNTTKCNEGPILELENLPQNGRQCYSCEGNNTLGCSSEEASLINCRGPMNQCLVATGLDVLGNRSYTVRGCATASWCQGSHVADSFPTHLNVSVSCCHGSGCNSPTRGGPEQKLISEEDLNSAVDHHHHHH

B1: fully human monoclonal antibody 4.18.1 (ATCC Accession Number PTA-7476) (antibody, V domains shown)
VH: EVQLVESGGGLIQPGGSLRLSCAASGFTVRNNYMNWVRQAPGKGLEWVSVIYTGGSTYYADSVKGRFTISRDNSRNTLYLQMNSLRAEDTAVYYCAREGAVAGFDYWGQGTLVTVSL
VL: EIVMTQFPATLSMSPGERATLSCRASQSVSSSLAWYQQTPGQAPRLLIYGASTRSTGFPARFSGIGSGTEFTLTISSLQSEDFAVYYCQQYGNWPLTFGQGTRLEIK
B2: fully human monoclonal antibody 2.6.1 (ATCC Accession Number PTA-7475) (antibody, V domains shown)
VH: EVQLVESGGGLIQPGGSLRLSCAASGFTVITNYMNWVRQAPGKGLEWVSIIYTGGSTSYADSVKGRFTVSRDNSKNTLYLHMNSLRVEDTAVYYCAREIAVAGYYGMDVWGQGTTVTVS
VL: DIQMTQSPSSLSASVGDRVTITCRASQGIRNDLGWYQQKPGKAPKRLIYAASSLQSGVPSRFSGSGSGTEFTLTISSLQPEDFATYYCLQHNSYPLTFGGGTRVEIK
notes: also called mAb 2.6.1
B3: fully human monoclonal antibody 2.19.2 (ATCC Accession Number PTA-7474) (antibody, V domains shown)
VH: QVQLVESGGGVVQPGRSLRLSCAASGFTFSSYGMHWVRQAPGKGLEWVAVIWYDGSNKYYADSVKGRFTISRDNSKNTLYLQMNSLRAEDTAVYYCARDQHIVVVTAILDYWGQGTLVTVSS
VL: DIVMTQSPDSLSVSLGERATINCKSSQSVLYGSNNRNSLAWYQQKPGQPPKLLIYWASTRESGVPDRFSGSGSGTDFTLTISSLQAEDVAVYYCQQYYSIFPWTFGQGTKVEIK

Assays:
[1] = target: T6, human urokinase-type plasminogen activator receptor (uPAR, CD87), cell-bound (human, UniProt Q03405 23-305); assay: cell-based or functional assay
[2] = target: T1, mouse uPAR on the surface of NCTC L929 …; assay: FACS, NCTC L929 mouse cells
Protocol: (§1) To make the mouse cross-reactivity results conclusive, direct binding of the mAbs to cell-bound mouse uPAR was measured using FACS analysis. The mouse cell line derived from the connective tissue, NCTC L929, was employed for FACS analysis. The harvested cells were resuspended at 50,000 cells/well using FACS buffer into a V-bottom plate which was put on ice. […] After washing, Cy5-labeled goat anti-human IgG Fc at 5 μg/ml and 7AAD at 5 μg/ml was added. The mixtures were incubated for 15 min on ice, washed and resuspended in cold FACS buffer for FACS analysis.

[3] = target: T7, soluble recombinant human uPAR/His6 (R&D Systems, Cat. # 807-UK-100) (human, UniProt Q03405 23-303); assay: high resolution Biacore
T7 construct: range 1-303; Bought protein; also called soluble uPAR; hu-uPAR
Protocol: (§2) All mAbs were diluted into 10 mM sodium acetate, pH 4.0 for immobilization. […] All experiments were run at 23° C. with a flow rate of 100 μL/min. Serially diluted (2-fold) uPAR samples were randomly injected in triplicate for 90 seconds with several buffer injections interspersed for double referencing. A Biacore™ 2000 biosensor instrument was used for all high resolution experiments. Data were fit globally to a 1:1 interaction model with a term for mass transport included.

[4] = target: T1, mouse uPAR on the surface of NCTC L929 …; assay: FACS, NCTC L929 mouse cells, mAb 6.25 µg/ml
Protocol: as §1

[5] = target: T2, human Ly6e with a myc tag, expressed in …; assay: FACS, HEK293T cells expressing Ly6e, supernatant 1:2
Protocol: The reactivity of the antibodies to the HEK293T transfected to express Ly6e was determined by FACS analysis, using 1:2 hybridoma supernatants, and probed with goat anti-human γ chain conjugated with Cy5 (2.5 mg/ml, Jackson Immune Research). Binding of an anti-myc antibody (10 μg/ml, Invitrogen) to the transfectants served as a positive control, and binding of this antibody to the (Ly6e negative) parental cells served as the negative control.

[6] = target: T6, human urokinase-type plasminogen …; assay: FACS competition with FITC-tc-uPA, line material
Target sequence in this assay (Q03405 23-305): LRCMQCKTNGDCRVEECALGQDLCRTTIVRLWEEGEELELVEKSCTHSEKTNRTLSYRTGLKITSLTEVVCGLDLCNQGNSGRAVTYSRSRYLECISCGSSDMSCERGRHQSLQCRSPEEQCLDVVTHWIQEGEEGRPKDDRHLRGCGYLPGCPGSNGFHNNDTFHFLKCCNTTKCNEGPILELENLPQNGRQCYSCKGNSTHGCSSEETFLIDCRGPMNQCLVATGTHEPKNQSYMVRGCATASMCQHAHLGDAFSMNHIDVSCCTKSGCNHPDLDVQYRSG
Description: (§3) Briefly, murine fibroblast L929 cells (ATCC) were transfected to express human uPAR.

[7] = target: T7, soluble recombinant human uPAR/His6 …; assay: limited antigen ELISA, uPAR coat 20 ng/mL, sample 1:25
Target sequence in this assay (Q03405 other isoform, or with tags, fused parts or gaps limits assumed, form in doubt): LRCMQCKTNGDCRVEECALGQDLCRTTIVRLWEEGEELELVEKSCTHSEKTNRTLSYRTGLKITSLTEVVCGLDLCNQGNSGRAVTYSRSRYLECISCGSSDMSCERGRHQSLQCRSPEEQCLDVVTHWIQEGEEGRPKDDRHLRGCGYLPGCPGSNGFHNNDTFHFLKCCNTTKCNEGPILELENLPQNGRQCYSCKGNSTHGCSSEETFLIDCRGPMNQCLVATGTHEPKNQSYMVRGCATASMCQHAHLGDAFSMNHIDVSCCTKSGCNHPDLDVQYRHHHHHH
Protocol: (§4) ELISA plates were coated with a lower amount ofuPAR in comparison with the High Antigen Quantitation assay described below (320, 160, 80, 40 and 20 ng/mL). Samples containing one concentration of antibody (Ab) (1:25 dilution) were incubated overnight to allow Ab binding to approach equilibrium.

[8] = target: T7, soluble recombinant human uPAR/His6 …; assay: limited antigen ELISA, uPAR coat 80 ng/mL, sample 1:25
Target sequence in this assay (Q03405 other isoform, or with tags, fused parts or gaps limits assumed, form in doubt): as above
Protocol: as §4

[9] = target: T7, soluble recombinant human uPAR/His6 …; assay: high resolution Biacore, mAb amine coupled, uPAR injected
Protocol: as §2

[10] = target: T6, human urokinase-type plasminogen …; assay: FACS, B300.19 cells expressing human uPAR, anti-human gamma Cy5
Target sequence in this assay (Q03405 23-305): as the sequence (Q03405 23-305) above

[11] = target: T6, human urokinase-type plasminogen …; assay: FACS competition, FITC-tc-uPA on L929 cells expressing human uPAR, supernatant 1:2
Target sequence in this assay (Q03405 23-305): as above
Description: as §3

[12] = target: T6, human urokinase-type plasminogen …; assay: FACS, U937 cells, mAb 5 µg/ml on ice, alexa647 goat anti-human F(ab), not stripped
Protocol: A cell suspension containing 100,000 cells was pipetted into each well of a V-bottom plates in duplicate. Two V-bottom plates were prepared, one to be kept at 37° C. during internalization with antibody complex, and the other to be incubated at 4° C. Each of the eight uPAR mAbs was incubated with U937 cells at 5 μg/ml on ice for 15 min. Incubation on ice was necessary to prevent internalization of the primary mAbs. The cells were then washed with cold FACS buffer. Cells were subsequently incubated on ice in 100 μl of 5 μg/ml alexa647-labelled goat anti-humanF(ab) (Invitrogen catalogue number A21249) in cold FACS buffer for 15 min. This allowed the goat FAB bind to the bound uPAR mAbs without permitting any internalization. After a 15 minute incubation on ice, one plate was kept on ice, while the other plate was incubated at 37° C. for 1 hour.
Following the 1 hr incubation with the mAb-FAB complex, the cells were washed twice with cold 5% FACS buffer, and 200 μl of Tris(2-carboxyethyl)phosphine HCl (TCEP) was added to each well as a stripping agent. The plates were both incubated with TCEP on ice for 1 hour, followed by washing and resuspending with FACS buffer. 4 μl of 7-Amino-Actinomycin D (7AAD) was added to each well, followed by 10 min incubation on ice before FACS analysis was conducted.

[13] = target: T3, lane 1: murine DI/DIII-human DII uPAR …; assay: Western blot of HEK293T culture supernatants with His-tagged uPAR proteins, probed with the antibody
Description: (§5) Human-murine uPAR chimeras (His-tagged) were expressed in BEK293T cells and uPAR expression was detected using the anti-human uPAR mAbs as indicated.
(§6) Chimeric human-murine uPAR comprising murine D1/humanD2D3; murine D1/human D2/MuD3; and human D1D2/murineD3uPAR each with a C-terminal His tag were expressed as secreted proteins in HEK293T cells.

[14] = target: T4, lane 3: murine DI-human DII/DIII uPAR …; assay: as above
Description: as §5, §6

[15] = target: T5, lane 4: human DI/DII-murine DIII uPAR …; assay: as above
Description: as §5, §6

Binder	Plasminogen activation inhibition (IC50, ug/ml) [1]	binding result [2]	Kd [3]	X Geo Mean [4]	binding result [5]	Human uPAR/uPA binding inhibition (%, line material) [6]	LA at 20 ng/ml [7]	LA at 80 ng/ml [8]	Kd [9]	gCy5 Geo Mean Pos Cells [10]	uPA/uPAR binding Inhibition % [11]	geo mean cold - TCEP [12]	binding result [13]	binding result [14]	binding result [15]
B1	0.067 µg/mL	no binding (tested: 6.25 µg/ml)	0.446 nM	8.18	no binding (tested: GeoMean ratio 1.95)	75%	0.27	2.06	0.446 nM	251	75%	41.2	no binding	binds	no binding
B2	0.073 µg/mL	no binding (tested: 6.25 µg/ml)	0.249 nM	12.9	no binding (tested: GeoMean ratio 1.95)	80%	0.63	3.58	0.249 nM	455	80%	44.3	no binding	binds	no binding
B3	0.053 µg/mL	no binding (tested: 6.25 µg/ml)	0.175 nM	9.55	no binding (tested: GeoMean ratio 1.95)	85%	0.65	2.65	0.175 nM	445	85%	42.7	no binding	no binding	binds
